Measured values taken from patent publication US20200392251A1 (University of California, published 2020).

How the values were obtained:
[1] = target: T1, catalytic domain of human MMP-14 (cdMMP-14) (human, UniProt P50281 114-320); assay: biolayer interferometry; biotinylated protease on streptavidin sensor, Fab in solution
T1 construct: range 114-320; Produced active in E. coli periplasm; biotinylated for BLI/ELISA
Experimental: (§1) Binding kinetics of produced antibodies towards associated protease targets were analyzed by using biolayer interferometry (ForteBio). For Fabs, biotinylated proteases were immobilized on streptavidin biosensors, and Fab binding to the sensors in absence of protease was monitored as backgrounds.

[2] = target: T1, catalytic domain of human MMP-14 …; assay: bio-layer interferometry (ForteBio), biotinylated protease on streptavidin biosensor, Fab in solution [panel 2A6]
Experimental: as §1

[3] = target: T1, catalytic domain of human MMP-14 …; assay: enzyme inhibition assay with FRET peptide substrate (M-2350), Fab titrated on cdMMP-14 [panel 2A6]
Experimental: (§2) For inhibition tests, 1 μM Fabs were 2-fold serially diluted into protease specific assay buffer and incubated with 1-10 nM proteases for 30 min at room temperature. […] Inhibition percentages at given concentrations were calculated by comparing the initial reaction rates in the presence or absence of inhibitor. […] Vₘₐₓ and Kₘ at various Fab concentrations were measured to determine the inhibition type. FRET inhibition assays were also used for selectivity tests of isolated Fabs with the relevant proteases.

[4] = target: T1, catalytic domain of human MMP-14 …; assay: FRET peptide inhibition assay; KI=IC50/(S/Km+1)
Experimental: as §2

[5] = target: T2, Aspergillus fumigatus autophagic serine protease 2 (Alp2) (Aspergillus fumigatus, UniProt P87184 136-495); assay: enzyme inhibition assay with FRET peptide substrate (Mca-[..](Dnp)), Fab titrated on Alp2 [panel A4A2]
T2 construct: range 136-495; Produced active in E. coli periplasm; biotinylated for BLI
T2 sequence: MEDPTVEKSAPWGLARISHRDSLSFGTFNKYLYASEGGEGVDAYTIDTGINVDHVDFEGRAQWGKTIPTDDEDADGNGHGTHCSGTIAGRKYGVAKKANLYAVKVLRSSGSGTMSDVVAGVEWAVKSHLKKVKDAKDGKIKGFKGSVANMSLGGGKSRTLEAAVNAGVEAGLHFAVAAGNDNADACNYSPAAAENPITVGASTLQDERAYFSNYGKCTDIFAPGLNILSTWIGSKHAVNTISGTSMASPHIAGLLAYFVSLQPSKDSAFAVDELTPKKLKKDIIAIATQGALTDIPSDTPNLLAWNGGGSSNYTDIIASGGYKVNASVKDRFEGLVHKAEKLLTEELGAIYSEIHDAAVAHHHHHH
Experimental: as §2

[6] = target: T2, Aspergillus fumigatus autophagic serine …; assay: enzyme inhibition assay with FRET peptide substrate, Fab titrated on Alp2 [panel B]
Experimental: as §2

[7] = target: T1, catalytic domain of human MMP-14 …; assay: bio-layer interferometry (ForteBio), biotinylated protease on streptavidin biosensor, Fab in solution [panel 2B4]
Experimental: as §1

[8] = target: T1, catalytic domain of human MMP-14 …; assay: enzyme inhibition assay with FRET peptide substrate (M-2350), Fab titrated on cdMMP-14 [panel 2B4]
Experimental: as §2

[9] = target: T1, catalytic domain of human MMP-14 …; assay: enzyme inhibition assay with FRET peptide substrate (M-2350), Fab titrated on cdMMP-14 [panel 2B10]
Experimental: as §2

[10] = target: T1, catalytic domain of human MMP-14 …; assay: bio-layer interferometry (ForteBio), biotinylated protease on streptavidin biosensor, Fab in solution [panel 2B10]
Experimental: as §1

[11] = target: T1, catalytic domain of human MMP-14 …; assay: enzyme inhibition assay with FRET peptide substrate (M-2350), Fab titrated on cdMMP-14 [panel 2D9]
Experimental: as §2

[12] = target: T1, catalytic domain of human MMP-14 …; assay: bio-layer interferometry (ForteBio), biotinylated protease on streptavidin biosensor, Fab in solution [panel 2D9]
Experimental: as §1

[13] = target: T1, catalytic domain of human MMP-14 …; assay: enzyme inhibition assay with FRET peptide substrate (M-2350), Fab titrated on cdMMP-14 [panel 1A5]
Experimental: as §2

[14] = target: T1, catalytic domain of human MMP-14 …; assay: bio-layer interferometry (ForteBio), biotinylated protease on streptavidin biosensor, Fab in solution [panel 1A5]
Experimental: as §1

[15] = target: T1, catalytic domain of human MMP-14 …; assay: bio-layer interferometry (ForteBio), biotinylated protease on streptavidin biosensor, Fab in solution [panel 2B12]
Experimental: as §1

[16] = target: T1, catalytic domain of human MMP-14 …; assay: enzyme inhibition assay with FRET peptide substrate (M-2350), Fab titrated on cdMMP-14 [panel 2B12]
Experimental: as §2

B1: anti-MMP-14 Fab 2A6 (Fab, V domains shown)
VH: EVQLVESGGGLVQPGGSLRLSCAASGFNFSSSSIHWVRQAPGKGLEWVASISSSYGYTYYADSVKGRFTISADTSKNTAYLQMNSLRAEDTAVYYCARVVRMLPVRCIPRCIKTTLPLYGMDYWGQGTLVTVSS
VL: DIQMTQSPSSLSASVGDRVTITCRASQSVSSAVAWYQQKPGKAPKLLIYSASSLYSGVPSRFSGSRSGTDFTLTISSLQPEDFATYYCQQSSFPFTFGQGTKVEIKR
notes: Fab from a synthetic human Fab library, produced in E. coli periplasm; also called Clone 2A6
[1]
  Kd: 130 nM
[2]
  koff: 0.003 s⁻¹
  kon: 24000 M⁻¹ s⁻¹
[3]
  IC50: 480 nM
[4]
  Ki: 430 nM

B2: anti-Alp2 Fab A4A2 (Fab, V domains shown)
VH: EVQLVESGGGLVQPGGSLRLSCAASGFNLSSSSMHWVRQAPGKGLEWVASIYPSYSYTYYADSVKGRFTISADTSKNTAYLQMNSLRAEDTAVYYCARKTSDQYLLVGGSFFKLRDCCYVMDYWGQGTLVTVSS
VL: DIQMTQSPSSLSASVGDRVTITCRASQSVSSAVAWYQQKPGKAPKLLIYSASSLYSGVPSRFSGSRSGTDFTLTISSLQPEDFATYYCQQASHLITFGQGTKVEIKR
notes: Fab from a synthetic human Fab library, produced in E. coli periplasm; also called Clone A4A2
[5]
  IC50: 250 nM

B3: anti-Alp2 Fab A4A1 (Fab, V domains shown)
VH: EVQLVESGGGLVQPGGSLRLSCAASGFNISSYYIHWVRQAPGKGLEWVASIYSYSSYTYYADSVKGRFTISADTSKNTAYLQMNSLRAGDTAVYYCARFGSWSYAIDYWGQGTLVTVSS
VL: DIQMTQSPSSLSASVGDRVTITCRASQSVSSAVAWYQQKPGKAPKLLIYSASSLYSGVPSRFSGSRSGTDFTLTISSLQPEDFATYYCQQASHLITFGQGTKVEIKR
notes: Fab from a synthetic human Fab library, produced in E. coli periplasm; also called Clone A4A1
[6]
  IC50: 15 nM

B4: anti-MMP-14 Fab 2B4 (Fab, V domains shown)
VH: EVQLVESGGGLVQPGGSLRLSCAASGFNLYSSYIHWVRQAPGKGLEWVASIYSSYSSTYYADSVKGRFTISADTSKNTAYLQMNSLRAEDTAVYYCARSDSAVYSVRRMGSSGLAAYAMDYWGQGTLVTVSS
VL: DIQMTQSPSSLSASVGDRVTITCRASQSVSSAVAWYQQKPGKAPKLLIYSASSLYSGVPSRFSGSRSGTDFTLTISSLQPEDFATYYCQQYSYGYSSLITFGQGTKVEIKR
notes: Fab from a synthetic human Fab library, produced in E. coli periplasm; also called Clone 2B4
[1]
  Kd: 66 nM
[7]
  koff: 0.00079 s⁻¹
  kon: 12000 M⁻¹ s⁻¹
[4]
  Ki: 98 nM
[8]
  IC50: 110 nM

B5: anti-MMP-14 Fab 2B10 (Fab, V domains shown)
VH: EVQLVESGGGLVQPGGSLRLSCAASGFNIYYSYMHWVRQAPGKGLEWVASIYPSYGYTYYADSVKGRFTISADTSKNTAYLQMNSLRAEDTAVYYCARQLFACWRQSILTPPLLSAMMMGYAMDYWGQGTLVTVSS
VL: DIQMTQSPSSLSASVGDRVTITCRASQSVSSAVAWYQQKPGKAPKLLIYSASSLYSGVPSRFSGSRSGTDFTLTISSLQPEDFATYYCQQYSVAYVWLITFGQGTKVEIKR
notes: Fab from a synthetic human Fab library, produced in E. coli periplasm; also called Clone 2B10
[1]
  Kd: 46 nM
[9]
  IC50: 240 nM
[10]
  koff: 0.0018 s⁻¹
  kon: 40000 M⁻¹ s⁻¹
[4]
  Ki: 210 nM

B6: anti-MMP-14 Fab 2D9 (Fab, V domains shown)
VH: EVQLVESGGGLVQPGGSLRLSCAASGFNISSSSMHWVRQAPGKGLEWVASIYPYYGYTYYADSVKGRFTISADTSKNTAYLQMNSLRAEDTAVYYCARGVTRFTNDASVGQVWAGAYGMDYWGQGTLVTVSS
VL: DIQMTQSPSSLSASVGDRVTITCRASQSVSSAVAWYQQKPGKAPKLLIYSASSLYSGVPSRFSGSRSGTDFTLTISSLQPEDFATYYCQQSSYSLITFGQGTKVEIKR
notes: Fab from a synthetic human Fab library, produced in E. coli periplasm; also called Clone 2D9
[11]
  IC50: 260 nM
[1]
  Kd: 260 nM
[12]
  koff: 0.0039 s⁻¹
  kon: 15000 M⁻¹ s⁻¹
[4]
  Ki: 230 nM

B7: anti-MMP-14 Fab 1A5 (Fab, V domains shown)
VH: EVQLVESGGGLVQPGGSLRLSCAASGFNLYYYYMHWVRQAPGKGLEWVAYIYPYSGSTYYADSVKGRFTISADTSKNTAYLQMNSLRAEDTAVYYCARLDFLMRDIYYDLGGGALGWLIKYAMDYWGQGTLVTVSS
VL: DIQMTQSPSSLSASVGDRVTITCRASQSVSSAVAWYQQKPGKAPKLLIYSASSLYSGVPSRFSGSRSGTDFTLTISSLQPEDFATYYCQQYSGPYPITFGQGTKVEIKR
notes: Fab from a synthetic human Fab library, produced in E. coli periplasm; also called Clone 1A5
[1]
  Kd: 57 nM
[13]
  IC50: 170 nM
[4]
  Ki: 150 nM
[14]
  koff: 0.0025 s⁻¹
  kon: 44000 M⁻¹ s⁻¹

B8: anti-MMP-14 Fab 2B12 (Fab, V domains shown)
VH: EVQLVESGGGLVQPGGSLRLSCAASGFNIYYSSMHWVRQAPGKGLEWVAYIYSSSSYTYYADSVKGRFTISADTSKNTAYLQMNSLRAEDTAVYYCARDCCSCVFSQSAGITLACVYVMDYWGQGTLVTVSS
VL: DIQMTQSPSSLSASVGDRVTITCRASQSVSSAVAWYQQKPGKAPKLLIYSASSLYSGVPSRFSGSRSGTDFTLTISSLQPEDFATYYCQQWGPHYAPITFGQGTKVEIKR
notes: Fab from a synthetic human Fab library, produced in E. coli periplasm; also called Clone 2B12
[15]
  koff: 0.0053 s⁻¹
  kon: 70000 M⁻¹ s⁻¹
[1]
  Kd: 76 nM
[16]
  IC50: 140 nM
[4]
  Ki: 120 nM
